Measured values reported in paper PMC12635249.
Several values for one entry are separate records, joined by “and”; a condition that tells them apart may be missing. Equal values may be shown once.

Target: PorKN heterodimer unit (P. gingivalis)
Assay: cryo-EM structure

PorKN heterodimer unit (complex)
stoichiometry N: 31 to 35 (2×) and 33
